The results in this text go back to the supplement of paper PMC5998384.

Data set [1] deals with HeLa Kyoto. In words: solubility in G1/S (NP-40 vs SDS abundance) (log2 ratio); higher = more soluble. The conditions noted are these: cell cycle stage: G1/S.
Data set [2] deals with HeLa Kyoto. The data set is described as follows: melting temperature (median over replicates), in situ; higher = more thermally stable.
For data set [3], the system named is HeLa Kyoto. The data set is described as follows: solubility change mitosis vs G1/S (difference of NP-40 vs SDS log2 ratios) (log2 ratio difference); higher = more soluble in mitosis.
In data set [4] the test system is HeLa Kyoto. In words: thermal stability score vs G1/S (z-score of summed log2 fold changes over temperatures); higher = more thermally stable than in G1/S.
[5] abbreviates: cell cycle stage: early G1 (4.5 h after nocodazole release).
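Throughout, for melting temperature (median over replicates), in situ: HeLa Kyoto cells synchronized by double thymidine or nocodazole block, proteins quantified by TMT10plex mass spectrometry, three independent biological replicates.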
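Throughout, for solubility change mitosis vs G1/S (difference of NP-40 vs SDS log2 ratios): synchronized HeLa Kyoto cells (double thymidine block for G1/S, nocodazole release for mitosis), protein amounts in NP-40 versus SDS lysates quantified by mass spectrometry, three biological replicates.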
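Throughout, for solubility in G1/S (NP-40 vs SDS abundance): HeLa Kyoto cells arrested at G1/S by double thymidine block, proteins quantified by TMT10plex mass spectrometry in mild NP-40 versus SDS extracts, three biological replicates.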
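Throughout, for thermal stability score vs G1/S (z-score of summed log2 fold changes over temperatures): synchronized HeLa Kyoto cells, proteins quantified by TMT10plex mass spectrometry, three biological replicates, mitosis taken 0.5 h after nocodazole release, G1/S directly after double thymidine block.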

Consider “MFRKARRVNVRKRNDSEEEERERDEEQEPPPLLPPPGTGEEAGPGGGDRAPGGESLLGPGPSPPSALTPGLGAEAGGGFPGGAEPGNGLKPRKRPRENKEVPRASLLSFQDEEEENEEVFKVKKSSYSKKIVKLLKKEYKEDLEKSKIKTELNSSAESEQPLDKTGHVKDTNQEDGVIISEHGEDEMDMESEKEEEKPKTGGAFSNALSSLNVLRPGEIPDAAFIHAARKKRQMARELGDFTPHDNEPGKGRLVREDENDASDDEDDDEKRRIVFSVKEKSQRQKIAEEIGIEGSDDDALVTGEQDEELSRWEQEQIRKGINIPQVQASQPAEVNMYYQNTYQTMPYGSSYGIPYSYTAYGSSDAKSQKTDNTVPFKTPSNEMTPVTIDLVKKQLKDRLDSMKELHKTNRQQHEKHLQSRVDSTRAIERLEGSSGGIGERYKFLQEMRGYVQDLLECFSEKVPLINELESAIHQLYKQRASRLVQRRQDDIKDESSEFSSHSNKALMAPNLDSFGRDRALYQEHAKRRIAEREARRTRRRQAREQTGKMADHLEGLSSDDEETSTDITNFNLEKDRISKESGKVFEDVLESFYSIDCIKSQFEAWRSKYYTSYKDAYIGLCLPKLFNPLIRLQLLTWTPLEAKCRDFENMLWFESLLFYGCEEREQEKDDVDVALLPTIVEKVILPKLTVIAENMWDPFSTTQTSRMVGITLKLINGYPSVVNAENKNTQVYLKALLLRMRRTLDDDVFMPLYPKNVLENKNSGPYLFFQRQFWSSVKLLGNFLQWYGIFSNKTLQELSIDGLLNRYILMAFQNSEYGDDSIKKAQNVINCFPKQWFMNLKGERTISQLENFCRYLVHLADTIYRNSIGCSDVEKRNARENIKQIVKLLASVRALDHAMSVASDHNVKEFKSLIEGK [PAXBP1]”, for which the “solubility in G1/S (log2)” value in the data set with HeLa Kyoto [1] is -0.54. The melting temperature came to 48.6 °C in the data set on HeLa Kyoto [2] (cell cycle stage: G1/S) and 49 °C with HeLa Kyoto [2] (cell cycle stage: mitosis). Further, the “solubility change mitosis (log2)” value in the data set with HeLa Kyoto [3] was 0.153. The thermal stability score in the data set with HeLa Kyoto [4] (setting [5]) came to 0.626; with HeLa Kyoto [4] (cell cycle stage: mitosis) it was 1.5.

On to “MAGAAAESGRELWTFAGSRDPSAPRLAYGYGPGSLRELRAREFSRLAGTVYLDHAGATLFSQSQLESFTSDLMENTYGNPHSQNISSKLTHDTVEQVRYRILAHFHTTAEDYTVIFTAGSTAALKLVAEAFPWVSQGPESSGSRFCYLTDSHTSVVGMRNVTMAINVISTPVRPEDLWSAEERSASASNPDCQLPHLFCYPAQSNFSGVRYPLSWIEEVKSGRLHPVSTPGKWFVLLDAASYVSTSPLDLSAHQADFVPISFYKIFGFPTGLGALLVHNRAAPLLRKTYFGGGTASAYLAGEDFYIPRQSVAQRFEDGTISFLDVIALKHGFDTLERLTGGMENIKQHTFTLAQYTYVALSSLQYPNGAPVVRIYSDSEFSSPEVQGPIINFNVLDDKGNIIGYSQVDKMASLYNIHLRTGCFCNTGACQRHLGISNEMVRKHFQAGHVCGDNMDLIDGQPTGSVRISFGYMSTLDDVQAFLRFIIDTRLHSSGDWPVPQAHADTGETGAPSADSQADVIPAVMGRRSLSPQEDALTGSRVWNNSSTVNAVPVAPPVCDVARTQPTPSEKAAGVLEGALGPHVVTNLYLYPIKSCAAFEVTRWPVGNQGLLYDRSWMVVNHNGVCLSQKQEPRLCLIQPFIDLRQRIMVIKAKGMEPIEVPLEENSERTQIRQSRVCADRVSTYDCGEKISSWLSTFFGRPCHLIKQSSNSQRNAKKKHGKDQLPGTMATLSLVNEAQYLLINTSSILELHRQLNTSDENGKEELFSLKDLSLRFRANIIINGKRAFEEEKWDEISIGSLRFQVLGPCHRCQMICIDQQTGQRNQHVFQKLSESRETKVNFGMYLMHASLDLSSPCFLSVGSQVLPVLKENVEGHDLPASEKHQDVTS [MOCOS]”, for which the “solubility in G1/S (log2)” value in the data set with HeLa Kyoto [1] was -0.123. The melting temperature was determined as 53.3 °C in the data set with HeLa Kyoto [2] (cell cycle stage: G1/S) and 53.6 °C with HeLa Kyoto [2] (cell cycle stage: mitosis). Moreover, in the data set on HeLa Kyoto [3], the “solubility change mitosis (log2)” value was -0.13. Besides, the thermal stability score is -1.28 in the data set on HeLa Kyoto [4] (setting [5]) and -1.96 with HeLa Kyoto [4] (cell cycle stage: mitosis).

With “MEIPGSLCKKVKLSNNAQNWGMQRATNVTYQAHHVSRNKRGQVVGTRGGFRGCTVWLTGLSGAGKTTVSMALEEYLVCHGIPCYTLDGDNIRQGLNKNLGFSPEDREENVRRIAEVAKLFADAGLVCITSFISPYTQDRNNARQIHEGASLPFFEVFVDAPLHVCEQRDVKGLYKKARAGEIKGFTGIDSEYEKPEAPELVLKTDSCDVNDCVQQVVELLQERDIVPVDASYEVKELYVPENKLHLAKTDAETLPALKINKVDMQWVQVLAEGWATPLNGFMREREYLQCLHFDCLLDGGVINLSVPIVLTATHEDKERLDGCTAFALMYEGRRVAILRNPEFFEHRKEERCARQWGTTCKNHPYIKMVMEQGDWLIGGDLQVLDRVYWNDGLDQYRLTPTELKQKFKDMNADAVFAFQLRNPVHNGHALLMQDTHKQLLERGYRRPVLLLHPLGGWTKDDDVPLMWRMKQHAAVLEEGVLNPETTVVAIFPSPMMYAGPTEVQWHCRARMVAGANFYIVGRDPAGMPHPETGKDLYEPSHGAKVLTMAPGLITLEIVPFRVAAYNKKKKRMDYYDSEHHEDFEFISGTRMRKLAREGQKPPEGFMAPKAWTVLTEYYKSLEKA [PAPSS1]”, in the data set with HeLa Kyoto [1], the “solubility in G1/S (log2)” value was determined as 0.104. The melting temperature is 53.6 °C with HeLa Kyoto [2] (cell cycle stage: G1/S) and 53.8 °C in the data set on HeLa Kyoto [2] (cell cycle stage: mitosis). Moreover, the “solubility change mitosis (log2)” value with HeLa Kyoto [3] is -0.174. Also, the results for the thermal stability score in the data set with HeLa Kyoto [4] (setting [5]) and with HeLa Kyoto [4] (cell cycle stage: mitosis) were 0.0766 and -0.551, respectively.

As to “MTHSLVCPETVSRVSSVLNRNTRQFGKKHLFDQDEETCWNSDQGPSQWVTLEFPQLIRVSQLQIQFQGGFSSRRGCLEGSQGTQALHKIVDFYPEDNNSLQTFPIPAAEVDRLKVTFEDATDFFGRVVIYHLRVLGEKV [NR2C2AP]”, in the data set on HeLa Kyoto [1], the “solubility in G1/S (log2)” value turned out to be 0.195. The melting temperature with HeLa Kyoto [2] (cell cycle stage: G1/S) was 53.3 °C; in the data set with HeLa Kyoto [2] (cell cycle stage: mitosis) it was 52.8 °C. Besides, in the data set on HeLa Kyoto [3], the “solubility change mitosis (log2)” value is -0.238. Also, the thermal stability score in the data set on HeLa Kyoto [4] (setting [5]) was 0.143; with HeLa Kyoto [4] (cell cycle stage: mitosis), -0.215.

Regarding “MARVAWGLLWLLLGSAGAQYEKYSFRGFPPEDLMPLAAAYGHALEQYEGESWRESARYLEAALRLHRLLRDSEAFCHANCSGPAPAAKPDPDGGRADEWACELRLFGRVLERAACLRRCKRTLPAFQVPYPPRQLLRDFQSRLPYQYLHYALFKANRLEKAVAAAYTFLQRNPKHELTAKYLNYYQGMLDVADESLTDLEAQPYEAVFLRAVKLYNSGDFRSSTEDMERALSEYLAVFARCLAGCEGAHEQVDFKDFYPAIADLFAESLQCKVDCEANLTPNVGGYFVDKFVATMYHYLQFAYYKLNDVRQAARSAASYMLFDPKDSVMQQNLVYYRFHRARWGLEEEDFQPREEAMLYHNQTAELRELLEFTHMYLQSDDEMELEETEPPLEPEDALSDAEFEGEGDYEEGMYADWWQEPDAKGDEAEAEPEPELA [P3H4]”, the “solubility in G1/S (log2)” value in the data set on HeLa Kyoto [1] is -0.293. For the same sequence, the melting temperature in the data set on HeLa Kyoto [2] (cell cycle stage: G1/S) came to 53.2 °C; in the data set on HeLa Kyoto [2] (cell cycle stage: mitosis), 53.6 °C. Moreover, the “solubility change mitosis (log2)” value in the data set on HeLa Kyoto [3] is -0.0349. The thermal stability score is 0.153 in the data set on HeLa Kyoto [4] (setting [5]) and 0.25 in the data set on HeLa Kyoto [4] (cell cycle stage: mitosis).
